Reference: publication PMC6926464, “Gating control of the cardiac sodium channel Nav1.5 by its β3-subunit involves distinct roles for a transmembrane glutamic acid and the extracellular domain” (The Journal of Biological Chemistry, 2019)
Numbering of substitutions follows the chain as printed. Names and notes keep the numbering of the source. Values joined by “and” are separate entries in the source; they are usually repeats but may differ in a detail not shown here. Equal entries are not always repeated.

B1: full-length WT β3-subunit with C-terminal EGFP tag (natural protein, human, UniProt Q9NY72 23-215, looked up)
chain: FPVCVEVPSETEAVQGNPMKLRCISCMKREEVEATTVVEWFYRPEGGKDFLIYEYRNGHQEVESPFQGRLQWNGSKDLQDVSITVLNVTLNDSGLYTCNVSREFEFEAHRPFVKTTRLIPLRVTEEAGEDFTSVVSEIMMYILLVFLTLWLLIEMIYCYRKVSKAEEAAQENASDYLAIPSENKENSAVPVEE
notes: voltage-gated sodium channel auxiliary β3-subunit, full-length; glycosylated (multiple bands on SDS-PAGE); also called WT-β3-EGFP; FL β3-EGFP; source: HEK293F, transfected (pcDNA3 WT-β3-EGFP), in lysate; not shown: EGFP, C-terminal, kept
B2: full-length β3-subunit E176K with C-terminal EGFP tag (natural protein, human, UniProt Q9NY72 23-215, looked up)
chain: B1 chain with E154K
notes: voltage-gated sodium channel auxiliary β3-subunit, full-length, with E176K in the transmembrane region; residues numbered from the start codon of the cDNA; Made by site-directed mutagenesis of WT-β3-EGFP; also called β3-E176K-EGFP; E176K-EGFP; source: HEK293F, transfected, in lysate; not shown: EGFP, C-terminal, kept

Target: the molecule itself
Test: cross-linking; HEK293F cells singly transfected with EGFP-tagged β3 constructs; lysate (Hanks' balanced salt solution, 1% Triton X-100, 0.2% SDS, 0.5% sodium deoxycholate) incubated with BS3 (5 mM) for 1 h at 4 °C, quenched with glycine; SDS-PAGE and anti-GFP Western blot

Protein | stoichiometry N
B1 | 2 and 3
B2 | 2 and 3
